The target of experiment [1] is T1, glutamyl-tRNA synthetase (Gus1) (S. cerevisiae, UniProt P46655 1-708).
T1 construct: Component of the purified AME complex; also called YGL245W
T1 sequence: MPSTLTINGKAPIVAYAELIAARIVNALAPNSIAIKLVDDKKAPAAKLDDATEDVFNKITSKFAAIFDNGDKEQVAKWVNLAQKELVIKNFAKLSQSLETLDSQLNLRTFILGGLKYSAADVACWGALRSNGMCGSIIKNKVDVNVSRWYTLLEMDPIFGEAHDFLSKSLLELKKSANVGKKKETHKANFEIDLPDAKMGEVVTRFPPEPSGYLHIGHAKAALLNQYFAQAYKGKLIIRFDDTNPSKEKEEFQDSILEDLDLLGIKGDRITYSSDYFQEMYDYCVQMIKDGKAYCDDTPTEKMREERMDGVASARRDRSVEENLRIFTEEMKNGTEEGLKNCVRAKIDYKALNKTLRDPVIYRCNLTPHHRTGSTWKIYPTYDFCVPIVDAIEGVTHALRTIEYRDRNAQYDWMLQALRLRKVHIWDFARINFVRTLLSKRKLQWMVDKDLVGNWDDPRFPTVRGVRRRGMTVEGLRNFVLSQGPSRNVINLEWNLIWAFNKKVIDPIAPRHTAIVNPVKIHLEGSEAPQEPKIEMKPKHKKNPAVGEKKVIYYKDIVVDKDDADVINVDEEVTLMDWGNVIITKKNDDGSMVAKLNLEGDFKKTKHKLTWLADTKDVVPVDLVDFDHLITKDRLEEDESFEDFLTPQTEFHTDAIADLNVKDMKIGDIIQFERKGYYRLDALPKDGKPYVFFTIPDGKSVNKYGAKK
Kind of experiment: co-elution on Superdex200 gel filtration, western blot of fractions (AME complex of Arc1, Mes1 and Gus1). On the technique in general: SEC sorts molecules by how far they enter the pores of the column.
Description: (§1) Shown on the left panel is the elution profile from Superdex200 gel filtration column.

Experiment [2] addresses T2, methionyl-tRNA synthetase (Mes1) (S. cerevisiae, UniProt P00958 2-751, limits assumed).
T2 construct: Component of the purified AME complex; also called YGR264C
T2 sequence: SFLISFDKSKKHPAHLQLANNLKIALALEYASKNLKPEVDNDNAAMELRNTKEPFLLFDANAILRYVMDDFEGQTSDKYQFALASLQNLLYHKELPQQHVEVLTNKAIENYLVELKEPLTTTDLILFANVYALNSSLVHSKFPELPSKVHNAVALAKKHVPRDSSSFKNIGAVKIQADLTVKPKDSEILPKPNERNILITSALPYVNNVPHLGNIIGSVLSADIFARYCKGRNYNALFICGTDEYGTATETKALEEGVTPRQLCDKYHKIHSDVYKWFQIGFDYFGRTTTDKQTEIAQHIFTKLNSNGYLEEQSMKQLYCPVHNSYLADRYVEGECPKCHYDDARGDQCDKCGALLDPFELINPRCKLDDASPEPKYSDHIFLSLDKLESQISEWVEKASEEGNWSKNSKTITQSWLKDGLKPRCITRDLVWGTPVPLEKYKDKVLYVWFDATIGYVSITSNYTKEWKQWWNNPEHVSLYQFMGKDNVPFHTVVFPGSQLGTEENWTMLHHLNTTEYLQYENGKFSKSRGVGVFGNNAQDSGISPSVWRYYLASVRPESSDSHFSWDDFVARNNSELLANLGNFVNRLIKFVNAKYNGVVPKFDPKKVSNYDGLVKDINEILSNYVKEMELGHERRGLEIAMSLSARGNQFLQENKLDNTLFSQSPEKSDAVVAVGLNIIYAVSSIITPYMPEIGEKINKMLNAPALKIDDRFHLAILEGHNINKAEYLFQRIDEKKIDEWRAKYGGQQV
The description is as above.
Description: as §1

This is an account of results in patent US20180305699A1 (UNIVERSITY OF CHICAGO, published 2018).

B1: aminoacylation cofactor (Arc1) (other)
chain: MSDLVTKFESLIISKYPVSFTKEQSAQAAQWESVLKSGQIQPHLDQLNLVLRDNTFIVSTLYPTSTDVHVFEVALPLIKDLVASSKDVKSTYTTYRHILRWIDYMQNLLEVSSTDKLEINHDLDLPHEVIEKKKKAPAGGAADAAAKADEDVSKKAKKQDHPRGKPDEETLKKLREEAKAKKAAKKAANAKQQQEQQNKAPEKPKPSAIDFRVGFIQKAIKHPDADSLYVSTIDVGDEEGPRTVCSGLVKHFPLDAMQERYVVVVCNLKPVNMRGIKSTAMVLCGSNDDKVEFVEPPKDSKAGDKVFFEGFGDEAPMKQLNPKKKIWEHLQPHFTTNDGLEVIFKDEEEKDHPVRKLTNAKGESFKVASIANAQVR
notes: Component of the purified AME complex; also called YGL105W
For the molecule B1, the binding result in experiment [1] and in experiment [2] was “binds” throughout.
